Data taken from patent US20260062488A1.
Several values for one entry are separate records, joined by “and”; a condition that tells them apart may be missing. Equal values may be shown once. Read-outs that look alike come from different tables or passages of the source.

Assays:
[1] = target: human α4β7 integrin (human) (UniProt P13612); assay: virion capture, Protein G plate, HIV BCF06, p24 gag
[2] = target: human α4β7 integrin (human) (UniProt P13612); assay: competitive FACS, 50x excess of non-labelled competitor Ab-Vedo
[3] = target: human α4β7 integrin (human) (UniProt P13612); assay: blockade of HuT78 cell adhesion to MAdCAM-1
[4] = target: cynomolgus αEβ7 integrin (cynomolgus monkey); assay: FACS, 1 µg/ml, BaF3-cαEβ7 cells
[5] = target: cynomolgus α4β7 integrin (cynomolgus monkey); assay: FACS, cyno CD4+ naïve
[6] = target: human α4β7 integrin (human) (UniProt P13612); assay: virion capture, Protein G plate, HIV RU570, p24 gag
[7] = target: cynomolgus αEβ7 integrin (cynomolgus monkey); assay: FACS, 1 µg/ml, BaF3-cαEβ7 cells; remark: listed apart in the source
[8] = target: human αEβ7 integrin (human) (UniProt P38570); assay: FACS, 1 µg/ml, BaF3-hαEβ7 cells
[9] = target: human α4β7 integrin (human) (UniProt P13612); assay: ELISA on plates coated with α4β7+GFP+VLPs; table drawn under the plot, without unit: unit from the axis '[Ab] (nM)'; the text prints the rounded 0.058 nM
[10] = target: human α4β7 integrin (human) (UniProt P13612); assay: ELISA on coated α4β7+GFP+VLPs
[11] = target: human α4β7 integrin (human) (UniProt P13612); assay: FACS, human CD4+ naïve
[12] = target: human α4β7 integrin (human) (UniProt P13612); assay: human lymphocytes, printed as plate-based cell adhesion blockade to MAdCAM-1
[13] = target: human α4β7 integrin (human) (UniProt P13612); assay: FACS, human CD8+ total
[14] = target: human α4β7 integrin (human) (UniProt P13612); assay: blockade of HuT78 cell adhesion to plate-bound MAdCAM-1, representative experiment; the two IC50 lines under the plot bear no name: the higher one is given to Ab-Vedo, whose curve lies right of Ab-m1's (midpoint near log -1.8 ug/ml)
[15] = target: human α4β7 integrin (human) (UniProt P13612); assay: FACS, human CD8+ naïve
[16] = target: cynomolgus α4β7 integrin (cynomolgus monkey); assay: FACS, cyno CD4+ total
[17] = target: cynomolgus α4β7 integrin (cynomolgus monkey); assay: blockade of CHOK1/cα4β7 adhesion to MAdCAM-1
[18] = target: human αEβ7 integrin (human) (UniProt P38570); assay: FACS, 1 µg/ml, BaF3-hαEβ7 cells; remark: listed apart in the source
[19] = target: human α4β7 integrin (human) (UniProt P13612); assay: row IC50 (pM) HuT78 of the binning table (assay not explained, presumably adhesion to MAdCAM-1)
[20] = target: human α4β7 integrin (human) (UniProt P13612); assay: blockade of RPMI 8866 cell binding to immobilised gp120-V2 WT peptide
[21] = target: human α4β7 integrin (human) (UniProt P13612); assay: FACS titration on BaF3-hα4β7
[22] = target: human α4β7 integrin (human) (UniProt P13612); assay: competitive FACS, 50x excess of non-labelled competitor Ab-Etro
[23] = target: mouse α4β7 integrin (mouse) (UniProt Q00651); assay: FACS, 1 µg/ml, CHOK1-mα4β7 cells
[24] = target: human α4β7 integrin (human) (UniProt P13612); assay: blockade of HuT78 cell adhesion to MAdCAM-1; remark: listed apart in the source
[25] = target: cynomolgus α4β7 integrin (cynomolgus monkey); assay: blockade of CHOK1-cα4β7 cell adhesion to MAdCAM-1, representative experiment; the two IC50 lines under the plot bear no name: the higher one is given to Ab-Vedo, whose curve lies clearly right of Ab-m1's (midpoint near log -0.9 ug/ml)
[26] = target: cynomolgus α4β7 integrin (cynomolgus monkey); assay: blockade of CHOK1-cα4β7 cell adhesion to MAdCAM-1
[27] = target: human α4β7 integrin (human) (UniProt P13612); assay: competitive FACS, 50x excess of non-labelled competitor Ab-m1
[28] = target: cynomolgus α4β7 integrin (cynomolgus monkey); assay: FACS, 1 µg/ml, CHOK1-cα4β7 cells
[29] = target: cynomolgus α4β7 integrin (cynomolgus monkey); assay: FACS, cyno CD8+ total
[30] = target: cynomolgus α4β7 integrin (cynomolgus monkey); assay: blockade of CHOK1-cα4β7 cell adhesion to MAdCAM-1; remark: listed apart in the source
[31] = target: human α4β7 integrin (human) (UniProt P13612); assay: virion capture, Protein G plate, HIV NL4-3, p24 gag
[32] = target: human α4β1 integrin (human) (UniProt P05556); assay: FACS, 1 µg/ml, CHOK1-hα4β1 cells
[33] = target: human α4β7 integrin (human) (UniProt P13612); assay: FACS, human CD4+ total
[34] = target: human α4β7 integrin (human) (UniProt P13612); assay: blockade of MAdCAM-1 mediated HuT78 cell adhesion
[35] = target: human α4β7 integrin (human) (UniProt P13612); assay: competitive FACS, 50x excess of non-labelled competitor Ab-Abri
[36] = target: cynomolgus α4β7 integrin (cynomolgus monkey); assay: FACS, 1 µg/ml, CHOK1-cα4β7 cells; remark: listed apart in the source
[37] = target: cynomolgus α4β7 integrin (cynomolgus monkey); assay: FACS, cyno CD8+ naïve
[38] = target: human α4β7 integrin (human) (UniProt P13612); assay: virion capture, Protein G plate, HIV YBF30, p24 gag
[39] = target: human α4β1 integrin (human) (UniProt P05556); assay: FACS, 1 µg/ml, CHOK1-hα4β1 cells; remark: listed apart in the source
[40] = target: human α4β7 integrin (human) (UniProt P13612); assay: FACS, primary human CD4+ memory T cells
[41] = target: human α4β7 integrin (human) (UniProt P13612); assay: FACS, 1 µg/ml, BaF3-hα4β7 cells
[42] = target: human α4β7 integrin (human) (UniProt P13612); assay: virion capture, Protein G plate, HIV CMU08, p24 gag
[43] = target: human α4β7 integrin (human) (UniProt P13612); assay: HuT78 cells, FACS-based blockade of MAdCAM-1 binding
[44] = target: cynomolgus α4β7 integrin (cynomolgus monkey); assay: FACS, cyno CD8+ memory
[45] = target: human α4β7 integrin (human) (UniProt P13612); assay: binding to human lymphocytes
[46] = target: human α4β7 integrin (human) (UniProt P13612); assay: FACS, 1 µg/ml, BaF3-hα4β7 cells; remark: listed apart in the source
[47] = target: human α4β7 integrin (human) (UniProt P13612); assay: flow cytometry, HuT78 cells
[48] = target: human α4β7 integrin (human) (UniProt P13612); assay: cell-based or functional assay

Sequence of Ab-Vedo (antibody) (VH): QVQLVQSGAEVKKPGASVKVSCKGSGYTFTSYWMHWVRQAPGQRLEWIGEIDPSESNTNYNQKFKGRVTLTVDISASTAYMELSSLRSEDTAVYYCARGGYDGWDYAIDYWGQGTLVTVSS
Sequence of Ab-Vedo (antibody) (VL): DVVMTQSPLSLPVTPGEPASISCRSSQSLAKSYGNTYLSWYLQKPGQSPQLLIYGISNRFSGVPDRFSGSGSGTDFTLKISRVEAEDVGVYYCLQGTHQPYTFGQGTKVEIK
Sequence of mouse α4β7 integrin (mouse) (Q00651 41-1039, chain 1 of 2): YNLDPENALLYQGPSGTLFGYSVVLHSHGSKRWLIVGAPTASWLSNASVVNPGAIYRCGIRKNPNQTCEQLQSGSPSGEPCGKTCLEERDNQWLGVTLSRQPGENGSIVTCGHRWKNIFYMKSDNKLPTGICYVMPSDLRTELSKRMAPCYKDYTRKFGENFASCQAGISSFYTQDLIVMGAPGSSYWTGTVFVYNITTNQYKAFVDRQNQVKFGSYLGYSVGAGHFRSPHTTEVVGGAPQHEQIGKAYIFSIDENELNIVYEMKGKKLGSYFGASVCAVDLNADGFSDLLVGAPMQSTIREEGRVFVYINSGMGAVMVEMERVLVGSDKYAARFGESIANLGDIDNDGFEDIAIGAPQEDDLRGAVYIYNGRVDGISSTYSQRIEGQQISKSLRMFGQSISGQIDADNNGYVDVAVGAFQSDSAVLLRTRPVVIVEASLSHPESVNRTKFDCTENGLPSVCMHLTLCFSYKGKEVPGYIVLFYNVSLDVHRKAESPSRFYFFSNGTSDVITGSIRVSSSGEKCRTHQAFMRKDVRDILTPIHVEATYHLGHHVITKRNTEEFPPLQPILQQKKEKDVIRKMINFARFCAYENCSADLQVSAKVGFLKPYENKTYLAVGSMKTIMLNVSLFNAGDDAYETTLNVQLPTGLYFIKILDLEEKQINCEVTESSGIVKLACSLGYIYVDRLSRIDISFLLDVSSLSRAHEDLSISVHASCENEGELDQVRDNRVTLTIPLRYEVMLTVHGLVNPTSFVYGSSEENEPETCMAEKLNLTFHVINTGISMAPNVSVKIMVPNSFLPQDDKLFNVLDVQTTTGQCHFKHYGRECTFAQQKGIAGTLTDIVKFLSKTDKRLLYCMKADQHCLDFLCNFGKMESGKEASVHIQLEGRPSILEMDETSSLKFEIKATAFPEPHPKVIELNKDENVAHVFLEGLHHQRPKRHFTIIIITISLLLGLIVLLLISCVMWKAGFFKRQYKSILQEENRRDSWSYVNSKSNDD
Sequence of mouse α4β7 integrin (mouse) (P26011 20-806, chain 2 of 2, further chain): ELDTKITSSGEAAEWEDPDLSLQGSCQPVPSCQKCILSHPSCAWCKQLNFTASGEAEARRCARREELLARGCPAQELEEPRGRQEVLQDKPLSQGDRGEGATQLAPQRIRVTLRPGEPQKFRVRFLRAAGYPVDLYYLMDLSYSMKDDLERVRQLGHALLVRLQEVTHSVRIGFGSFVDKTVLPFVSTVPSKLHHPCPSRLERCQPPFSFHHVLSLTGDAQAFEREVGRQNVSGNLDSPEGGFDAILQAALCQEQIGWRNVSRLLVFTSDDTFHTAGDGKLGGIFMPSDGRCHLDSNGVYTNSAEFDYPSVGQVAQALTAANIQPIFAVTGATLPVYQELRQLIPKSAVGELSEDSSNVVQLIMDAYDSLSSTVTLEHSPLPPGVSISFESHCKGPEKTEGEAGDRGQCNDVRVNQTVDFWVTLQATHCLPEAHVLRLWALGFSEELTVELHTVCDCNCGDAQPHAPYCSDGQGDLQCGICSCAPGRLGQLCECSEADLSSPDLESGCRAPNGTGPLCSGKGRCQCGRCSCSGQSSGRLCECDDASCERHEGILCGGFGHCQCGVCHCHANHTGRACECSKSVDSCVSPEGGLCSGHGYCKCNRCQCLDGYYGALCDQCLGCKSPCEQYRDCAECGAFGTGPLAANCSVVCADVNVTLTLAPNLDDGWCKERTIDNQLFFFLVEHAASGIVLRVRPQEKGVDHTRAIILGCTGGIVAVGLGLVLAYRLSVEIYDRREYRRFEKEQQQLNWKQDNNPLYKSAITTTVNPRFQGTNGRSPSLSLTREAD

Ab-Vedo (antibody) was tested, and the EC50 [1] was 0.37 nM and 0.056 µg/mL, the percentage of binding inhibition [2] was 88% and the IC50 [3] was 0.0574 nM. For the same substance, the Max inhibition (%) [3] was 94.7%, the FACS MFI [4] was 57.2 MFI and the EC50 [5] was 0.228 nM. For the same substance, the EC50 [6] was 0.32 nM and 0.048 µg/mL, the FACS MFI [7] was 60.9 MFI and the FACS MFI [8] was 11.6 MFI. It also gave an EC50 [9] of 0.0582 nM, an EC50 [10] of 0.058 nM and an EC50 [11] of 0.381 nM. It also gave an IC50 [12] of 0.63 nM, an EC50 [13] of 0.658 nM and an IC50 [14] of 0.0981 nM. The EC50 [15] was 0.727 nM, the EC50 [16] was 0.202 nM and the IC50 [17] was 0.12 nM. For the same substance, the FACS MFI [18] was 19.5 MFI, the IC50 [19] was 0.089 nM and the IC50 [20] was 0.042 µg/mL. It also gave an EC50 [21] of 0.713 nM, a Max MFI [21] of 848 MFI and a percentage of binding inhibition [22] of 18%. For the same substance, the FACS MFI [23] was 2.91 MFI, the IC50 [24] was 0.0949 nM and the Max inhibition (%) [24] was 86.5%. For the same substance, the IC50 [25] was 0.822 nM, the IC50 [26] was 0.541 nM and the Max inhibition (%) [26] was 94.4%. The percentage of binding inhibition [27] was 76%, the FACS MFI [28] was 101 MFI and the EC50 [29] was 0.199 nM. For the same substance, the IC50 [30] was 0.562 nM, the Max inhibition (%) [30] was 76% and the EC50 [31] was 0.34 nM and 0.05 µg/mL. The FACS MFI [32] was 4.23 MFI, the EC50 [33] was 0.381 nM and the IC50 [34] was 0.031 nM and 0.06 nM. The percentage of binding inhibition [35] was 89%, the FACS MFI [36] was 46.5 MFI and the EC50 [37] was 0.256 nM. The EC50 [38] was 0.48 nM and 0.072 µg/mL, the FACS MFI [39] was 2.87 MFI and the EC50 [40] was 0.0432 nM. The FACS MFI [41] was 153 MFI, the EC50 [42] was 0.5 nM and 0.075 µg/mL and the IC50 [43] was 0.193 nM. The EC50 [44] was 0.204 nM, the EC50 [45] was 0.502 nM and the FACS MFI [46] was 707 MFI. For the same substance, the EC50 [47] was 0.911 nM.
Substance “MAdCAM-1 (R&D systems) (from UniProt Q13477 19-317) (ligand)” has an activated (Ki67+CD25+) human primary CD4+ T cells with plate bound anti-CD3 and MAdCAM-1 (22.6% with anti-CD3 alone) [48] of 56.6%.
